Data taken from patent publication US20050152896A1 (Amgen, published 2005).

Molecular target: T1, peptide of the 14 C-terminal amino acids of human galanin (human, UniProt P22466 49-62)
T1 construct: domain: 14 C-terminal amino acids of human galanin
T1 peptide (looked up): GNHRSFSDKNGLTS
Assay: co-crystal structure

binding result: binds
B1: Fab fragment of murine antibody 1D7 (Fab, V domains shown)
VH: EIQLQQSEAELVKPGASVRLSCATSGFNIKDYYIHWVKQTTEQGLEWIGRIDPEDGETEYAPKFQGKATIAADTSSNTAYLLLNSLSSEDTAVYYCTRGYASWGQGTTLTVSS
VL: DVLMTQTPLSLSVSLGDQASISCRSSQSFVHSDGNTYLEWYLQKSGQSPKLLIYKVSNRFSGVPDRFSGSGSGTDFTLKINRVEAEDLGVYYCFQGSHVPYTFGGGTKLEIKR
notes: Papain Fab of the hybridoma antibody; also called 1D7 Fab
